{"source": "patent US20230002494A1", "about": "(SANYOU BIOPHARMACEUTICALS, published 2023)", "key": {"[1]": {"biological_target": "T1, human PD-L1 (full-length, on cells) (human, UniProt Q9NZQ7 19-290)", "T1 construct": "whole, on cells; Expressed on CHO-s cells; also called human PD-L1-CHO; PD-L1-CHO", "T1 sequence (Q9NZQ7 19-290)": "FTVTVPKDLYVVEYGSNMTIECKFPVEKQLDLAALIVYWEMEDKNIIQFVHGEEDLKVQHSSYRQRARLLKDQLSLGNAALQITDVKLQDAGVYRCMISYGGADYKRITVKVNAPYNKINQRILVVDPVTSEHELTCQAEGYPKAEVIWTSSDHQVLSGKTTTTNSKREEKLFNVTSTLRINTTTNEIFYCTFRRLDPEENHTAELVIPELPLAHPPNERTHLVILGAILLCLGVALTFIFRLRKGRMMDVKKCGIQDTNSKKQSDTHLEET", "assay": "FACS blocking on huPDL1-CHO cells; blocked ligand PD-1-Biotin 1 µg/mL; MFI = bound PD-1"}, "[2]": {"biological_target": "T1, human PD-L1 (full-length, on cells)", "assay": "FACS on huPD-L1-CHOK cells"}, "[3]": {"biological_target": "T2, mouse PD-L1 (full-length, on CHO-s cells) (mouse, UniProt Q9EP73 19-290)", "T2 construct": "whole, on cells; also called mouse PD-L1-CHO", "T2 sequence (Q9EP73 19-290)": "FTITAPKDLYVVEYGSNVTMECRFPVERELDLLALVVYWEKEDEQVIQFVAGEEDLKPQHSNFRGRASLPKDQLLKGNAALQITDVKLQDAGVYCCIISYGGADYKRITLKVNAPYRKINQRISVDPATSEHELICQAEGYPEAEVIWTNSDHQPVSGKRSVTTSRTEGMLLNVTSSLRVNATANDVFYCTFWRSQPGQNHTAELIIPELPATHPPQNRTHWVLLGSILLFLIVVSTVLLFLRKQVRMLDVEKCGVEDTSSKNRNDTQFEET", "assay": "FACS on mouse PD-L1-CHOK cells"}, "[4]": {"biological_target": "T1, human PD-L1 (full-length, on cells)", "assay": "FACS on PD-L1-CHO cells, anti-Llama IgG FITC"}, "[5]": {"biological_target": "T3, rhesus monkey PD-L1 (full-length, on CHO-s cells) (rhesus monkey, UniProt F6VEW6 19-290)", "T3 construct": "whole, on cells; also called monkey PD-L1-CHO", "assay": "FACS, monkey PD-L1-CHO cells", "description": "(§1) In order to evaluate 4 derisked VHH-Fc candidate antibodies, an FACS method is used to detect the binding activities thereof to cell expressed human PD-L1 and monkey PD-L1 proteins."}, "[6]": {"biological_target": "T1, human PD-L1 (full-length, on cells)", "assay": "FACS, human PD-L1-CHO cells", "description": "as §1"}, "[7]": {"biological_target": "T1, human PD-L1 (full-length, on cells)", "assay": "FACS blocking on PD-L1-CHO cells, lysate samples; the blocked ligand is not named on the sheet or in Example 17"}, "[8]": {"biological_target": "T1, human PD-L1 (full-length, on cells)", "assay": "FACS on human PD-L1-CHO cells, PE anti-human IgG Fc", "description": "1) collecting the cultured human PD-L1-CHO cells, centrifuging the collected cells at 300 g to remove the supernatant, resuspending the cells in a formulated FACS buffer and counting the cells, and adjusting the density of the cell suspension to 2×10⁶ cells/mL;"}}, "data": [{"binder": "NB22D-21-94 (Fc fusion, not shown: 'full-length antibodies' were constructed) EVQLVESGGGLVQPGGSLRLSCAASRTAGNIHGMHWYRQAPGKGREWVGSIFITGNTIVTDSVKGRFTISRDNAKNTLYLQMNTLRAEDTAVYYCAADVRGYGRAWGQGTTVTVSS", "values": [{"measurement": "IC50 (read off the curve)", "setting": "[1]", "value": "~0.2", "unit": "µg/mL"}, {"measurement": "EC50 (read off the curve)", "setting": "[2]", "value": "~0.2", "unit": "µg/mL"}]}, {"binder": "NB22D-21-109 (Fc fusion, not shown: 'full-length antibodies' were constructed) EVQLVESGGGLVQPGGSLRLSCAASRTAGYIHGMHWYRQAPGKGREWVGMIFGWGNTIVTDSVKGRFTISRDNAKNTLYLQMNTLRAEDTAVYYCAADVRGYGRAWGQGTTVTVSS", "values": [{"measurement": "IC50 (read off the curve)", "setting": "[1]", "value": "~0.2", "unit": "µg/mL"}, {"measurement": "EC50 (read off the curve)", "setting": "[2]", "value": "~0.2", "unit": "µg/mL"}, {"measurement": "EC50 (read off the curve)", "setting": "[3]", "value": "~1", "unit": "µg/mL"}]}, {"binder": "SY01-201 (VHH lysate) (VHH, Tested as VHH lysate of a monoclone from the phage display vector) VHH: EVQLVESGGGLVQPGGSLRLSCAHSRTDSNIHGMHWYRQAPGKGREWVGTIFIDLNTIVTDSVKGRFTISRDNAKNTLYLQMNTLRAEDTAVYYCAADVSGYGRAWGQGTTVTVSS", "values": [{"measurement": "binding result", "setting": "[4]", "value": "binds"}]}, {"binder": "NB22D-21-17 VHH-Fc chimeric antibody protein (Fc fusion, not shown: human IgG1 Fc fragment, its N-terminus linked to the C-terminus of the VHH) EVQLVESGGGLVQPGGSLRLSCAASRTGSNIYGMHWYRQAPGKGREWVGTIFIDWNTIVTDSVKGRFTISRDNAKNTLYLQMNTLRAEDTAVYYCAADVSGYGRAWGQGTTVTVSS", "values": [{"measurement": "EC50", "setting": "[5]", "value": 3.25, "unit": "µg/mL"}, {"measurement": "EC50", "setting": "[6]", "value": 1.73, "unit": "µg/mL"}]}, {"binder": "SY01-D21-24 (VHH lysate) (VHH) VHH: EVQLVESGGGLVQPGGSLRLSCAASRTFSNIFGMHWYRQAPGKGREWVGTIFITGNTIVTDSVKGRFTISRDNAKNTLYLQMNTLRAEDTAVYYCAADVSGYGRAWGQGTTVTVSS", "values": [{"measurement": "IC50 (read off the curve)", "setting": "[7]", "value": "~0.5", "unit": "µg/mL"}]}, {"binder": "NB22D-21-45-106 (Fc fusion, not shown: 'full-length antibodies' were constructed) EVQLVESGGGLVQPGGSLRLSCAASRRWSNIHGMHWYRQAPGKGREWVGSRFITGNTIVTDSVKGRFTISRDNAKNTLYLQMNTLRAEDTAVYYCAADVRGYGRAWGQGTTVTVSS", "values": [{"measurement": "IC50 (read off the curve)", "setting": "[1]", "value": "~0.2", "unit": "µg/mL"}, {"measurement": "EC50 (read off the curve)", "setting": "[2]", "value": "~0.2", "unit": "µg/mL"}, {"measurement": "binding result", "setting": "[3]", "value": "binds"}]}, {"binder": "NB22D-21-154 (Fc fusion, not shown: 'full-length antibodies' were constructed) EVQLVESGGGLVQPGGSLRLSCAASRTASNAMGMHWYRQAPGKGREWVGMIFRDGNTIVTDSVKGRFTISRDNAKNTLYLQMNTLRAEDTAVYYCAADVRGYGRAWGQGTTVTVSS", "values": [{"measurement": "IC50 (read off the curve)", "setting": "[1]", "value": "~0.2", "unit": "µg/mL"}, {"measurement": "EC50 (read off the curve)", "setting": "[2]", "value": "~0.2", "unit": "µg/mL"}, {"measurement": "binding result", "setting": "[3]", "value": "binds"}]}, {"binder": "47 (VHH, also called SY01-D21-47) VHH: EVQLVESGGGLVQPGGSLRLSCAASRTLSNIRGMHWYRQAPGKGREWVGTIFIDLNTIVTDSVKGRFTISRDNAKNTLYLQMNTLRAEDTAVYYCAADVSGYGRAWGQGTTVTVSS", "values": [{"measurement": "IC50 (read off the curve)", "setting": "[7]", "value": "~0.3", "unit": "µg/mL"}]}, {"binder": "NB22D-21-huVH1 (Fc fusion, not shown: a dimerising Fc or GST, Humanized form of NB22D-21; also called humanized antibody NB22D-21-huVH1) EVQLVESGGGLVQPGGSLRLSCAHSRTDSNINGMHWYRQAPGKGREWVGTIFIDGNTIVTDSVKGRFTISRDNAKNTLYLQMNTLRAEDTAVYYCAADVSGYGRAWGQGTTVTVSS", "values": [{"measurement": "EC50 (read off the curve)", "setting": "[8]", "value": "~0.1", "unit": "µg/mL"}]}, {"binder": "NB22D-21-123 (Fc fusion, not shown: 'full-length antibodies' were constructed) EVQLVESGGGLVQPGGSLRLSCAASPTASNIHGMHWYRQAPGKGREWVGMIFITGLTIVTDSVKGRFTISRDNAKNTLYLQMNTLRAEDTAVYYCAADVSGYGRAWGQGTTVTVSS", "values": [{"measurement": "IC50 (read off the curve)", "setting": "[1]", "value": "~0.2", "unit": "µg/mL"}, {"measurement": "EC50 (read off the curve)", "setting": "[2]", "value": "~0.2", "unit": "µg/mL"}, {"measurement": "binding result", "setting": "[3]", "value": "binds"}]}, {"binder": "SY01-D21-8 (VHH lysate) (VHH) VHH: EVQLVESGGGLVQPGGSLRLSCAASRTYSNIYGMHWYRQAPGKGREWVGTIFIGSNTIVTDSVKGRFTISRDNAKNTLYLQMNTLRAEDTAVYYCAADVSGYGRAWGQGTTVTVSS", "values": [{"measurement": "IC50 (read off the curve)", "setting": "[7]", "value": "~0.3", "unit": "µg/mL"}]}, {"binder": "NB22D-21-8 VHH-Fc chimeric antibody protein (Fc fusion, not shown: human IgG1 Fc fragment, its N-terminus linked to the C-terminus of the VHH) EVQLVESGGGLVQPGGSLRLSCAASRTYSNIYGMHWYRQAPGKGREWVGTIFIGSNTIVTDSVKGRFTISRDNAKNTLYLQMNTLRAEDTAVYYCAADVSGYGRAWGQGTTVTVSS", "values": [{"measurement": "EC50", "setting": "[5]", "value": 0.7, "unit": "µg/mL"}, {"measurement": "EC50", "setting": "[6]", "value": 0.26, "unit": "µg/mL"}]}]}
